Publication PMC7855068 (Nature structural & molecular biology, 2020)

T1: Arp7/Arp9/Rtt102 heterotrimer (S. cerevisiae, UniProt Q12406;Q05123;P53330)
T1 sequence 1: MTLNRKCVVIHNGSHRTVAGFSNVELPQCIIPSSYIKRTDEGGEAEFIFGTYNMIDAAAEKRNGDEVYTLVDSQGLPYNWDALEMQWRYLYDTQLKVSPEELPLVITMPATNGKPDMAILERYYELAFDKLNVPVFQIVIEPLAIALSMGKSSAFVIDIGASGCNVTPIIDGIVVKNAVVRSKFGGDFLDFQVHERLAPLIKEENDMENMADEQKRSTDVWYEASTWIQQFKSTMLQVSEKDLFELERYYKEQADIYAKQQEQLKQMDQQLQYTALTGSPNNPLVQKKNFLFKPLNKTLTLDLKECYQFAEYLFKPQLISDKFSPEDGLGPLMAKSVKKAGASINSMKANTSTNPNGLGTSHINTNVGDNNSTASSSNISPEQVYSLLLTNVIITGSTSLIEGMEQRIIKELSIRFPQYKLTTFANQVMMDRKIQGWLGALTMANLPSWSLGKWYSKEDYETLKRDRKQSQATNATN
T1 sequence 2: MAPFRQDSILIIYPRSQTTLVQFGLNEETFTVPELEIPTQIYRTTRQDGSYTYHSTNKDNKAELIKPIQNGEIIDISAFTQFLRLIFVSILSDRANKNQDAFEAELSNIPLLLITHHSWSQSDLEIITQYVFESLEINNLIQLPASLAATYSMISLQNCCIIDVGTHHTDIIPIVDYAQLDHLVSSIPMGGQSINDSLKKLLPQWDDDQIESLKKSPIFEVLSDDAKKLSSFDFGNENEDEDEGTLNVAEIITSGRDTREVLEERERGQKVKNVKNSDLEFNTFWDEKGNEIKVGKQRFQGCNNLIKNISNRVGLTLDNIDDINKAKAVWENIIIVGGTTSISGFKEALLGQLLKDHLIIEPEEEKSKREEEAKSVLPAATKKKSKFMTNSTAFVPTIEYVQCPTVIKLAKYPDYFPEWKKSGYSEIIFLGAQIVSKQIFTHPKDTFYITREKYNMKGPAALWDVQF
T1 sequence 3: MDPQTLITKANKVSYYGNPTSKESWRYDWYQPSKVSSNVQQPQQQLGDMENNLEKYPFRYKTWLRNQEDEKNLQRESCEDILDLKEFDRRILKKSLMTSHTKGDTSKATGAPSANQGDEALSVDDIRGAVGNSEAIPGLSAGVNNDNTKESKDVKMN

B1: Sth1 (AA 301–1097), truncated ATPase subunit of RSC (domain or fragment)
chain: VRLAEELERQQLLEKRKKERNLHLQKINSIIDFIKERQSEQWSRQERCFQFGRLGASLHNQMEKDEQKRIERTAKQRLAALKSNDEEAYLKLLDQTKDTRITQLLRQTNSFLDSLSEAVRAQQNEAKILHGEEVQPITDEEREKTDYYEVAHRIKEKIDKQPSILVGGTLKEYQLRGLEWMVSLYNNHLNGILADEMGLGKTIQSISLITYLYEVKKDIGPFLVIVPLSTITNWTLEFEKWAPSLNTIIYKGTPNQRHSLQHQIRVGNFDVLLTTYEYIIKDKSLLSKHDWAHMIIDEGHRMKNAQSKLSFTISHYYRTRNRLILTGTPLQNNLPELWALLNFVLPKIFNSAKTFEDWFNTPFANTGTQEKLELTEEETLLIIRRLHKVLRPFLLRRLKKEVEKDLPDKVEKVIKCKLSGLQQQLYQQMLKHNALFVGAGTEGATKGGIKGLNNKIMQLRKICNHPFVFDEVEGVVNPSRGNSDLLFRVAGKFELLDRVLPKFKASGHRVLMFFQMTQVMDIMEDFLRMKDLKYMRLDGSTKTEERTEMLNAFNAPDSDYFCFLLSTRAGGLGLNLQTADTVIIFDTDWNPHQDLQAQDRAHRIGQKNEVRILRLITTDSVEEVILERAMQKLDIDGKVIQAGKFDNKSTAEEQEAFLRRLIESETNRDDDDKAELDDDELNDTLARSADEKILFDKIDKERMNQERADAKAQGLRVPPPRLIQLDELPKVFREDIEEHFKKEDSEPLGRIRQKKRVYYDDGLTEEQFLEAVEDDNMSLEDAIKKRREARERRRLRQ
B2: Arp9 (natural protein)
chain: T1 sequence 2
B3: HSA peptide (Sth1 residues 316–377) (peptide)
peptide: RKKERNLHLQKINSIIDFIKERQSEQWSRQERCFQFGRLGASLHNQMEKDEQKRIERTAKQR
B4: Arp7 (natural protein)
chain: T1 sequence 1
B5: Rtt102 (natural protein)
chain: T1 sequence 3

How the values were obtained:
[1] = biological target: T1, Arp7/Arp9/Rtt102 heterotrimer; assay: cryo-EM structure
[2] = biological target: B1; assay: cryo-EM structure
Arp7 = biological target: B4; assay: cryo-EM structure
[3] = biological target: T1, Arp7/Arp9/Rtt102 heterotrimer; assay: circular dichroism
Arp9 = biological target: B2; assay: cryo-EM structure

B1: binds [1].

B2: binds [2]; binds (Arp7).

B3: binds [3].

B4: binds [2].

B5: binds (Arp7); binds (Arp9).
